The record followed here is publication PMC4843017, “Molecular requirements for the inter-subunit interaction and kinetochore recruitment of SKAP and Astrin” (Nature Communications, 2016).

Data set [1] deals with T1, taxol-stabilized microtubules (α-/β-tubulin) (bovine, UniProt P81947 1-451; Q6B856 1-445).
T1 construct: α-tubulin, named α-1B tubulin in the cross-linking analysis; β-tubulin, named β-2B tubulin in the cross-linking analysis; Polymer of α/β-tubulin dimers; Bought tubulin is likely a mixture of isotypes; In the polymerization assay (functional rows) the same tubulin was used unpolymerized; also called MTs; α-1B and β-2B tubulin; source: bought: Cytoskeleton, Inc; polymerized according to …
The data set is described as follows: co-sedimentation; Kd determination: 0-10 μM taxol-stabilized microtubules (tubulin dimer), 1 μM BSA, 1 μM protein of interest; 25 mM Hepes pH 7.5, 150 mM NaCl, 1 mM MgCl2, 1 mM EGTA, 2 mM DTE; 10 min room temperature; 350,000 g, 25 °C; gel densitometry, quadratic fit; apparent Kd. The following applies: both partners purified.

Data set [2] deals with the molecule itself. As to the kind of experiment: AUC + cross-linking; sedimentation velocity, 42,000 r.p.m., 20 °C, 20 mM Hepes pH 7.5, 300 mM NaCl, 10% glycerol, 2 mM DTE; cross-linking conditions not told (Supplementary Fig. 3).

T1 sequence (P81947 whole entry, chain 1 of 2): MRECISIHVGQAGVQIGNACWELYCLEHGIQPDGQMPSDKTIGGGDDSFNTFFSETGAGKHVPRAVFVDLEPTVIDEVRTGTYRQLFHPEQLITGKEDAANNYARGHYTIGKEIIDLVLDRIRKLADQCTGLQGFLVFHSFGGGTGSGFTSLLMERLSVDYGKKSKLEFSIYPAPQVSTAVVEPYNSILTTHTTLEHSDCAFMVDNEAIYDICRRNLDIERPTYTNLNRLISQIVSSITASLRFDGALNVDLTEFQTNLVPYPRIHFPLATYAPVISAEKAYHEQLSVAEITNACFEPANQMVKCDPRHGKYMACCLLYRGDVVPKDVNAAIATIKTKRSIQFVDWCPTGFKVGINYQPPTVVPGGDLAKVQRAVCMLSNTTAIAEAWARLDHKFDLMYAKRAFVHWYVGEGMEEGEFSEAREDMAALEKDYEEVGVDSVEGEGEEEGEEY
T1 sequence (Q6B856 whole entry, chain 2 of 2): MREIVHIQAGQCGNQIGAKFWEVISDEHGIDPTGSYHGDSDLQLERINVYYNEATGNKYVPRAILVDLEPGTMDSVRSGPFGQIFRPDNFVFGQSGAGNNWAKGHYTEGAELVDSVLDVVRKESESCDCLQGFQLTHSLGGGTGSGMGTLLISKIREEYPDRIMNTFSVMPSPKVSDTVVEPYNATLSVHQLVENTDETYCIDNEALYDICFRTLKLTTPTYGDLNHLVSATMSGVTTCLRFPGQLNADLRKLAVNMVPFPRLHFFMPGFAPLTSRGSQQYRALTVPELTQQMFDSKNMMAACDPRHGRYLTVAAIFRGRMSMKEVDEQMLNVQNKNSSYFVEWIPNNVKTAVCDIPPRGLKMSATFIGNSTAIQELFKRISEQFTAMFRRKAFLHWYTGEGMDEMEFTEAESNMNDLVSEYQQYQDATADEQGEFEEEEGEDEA

B1: SKAP^103–225 (domain or fragment, human, UniProt Q9Y448 103-225, looked up)
chain: TQTRATSKSLLPVRSKEVDVSKQLHSGGPENDVTKITKLRRENGQMKATDTATRRNVRKGYKPLSKQKSEEELKDKNQLLEAVNKQLHQKLTETQGELKDLTQKVELLEKFRDNCLAILESKG
notes: Small kinetochore-associated protein (SKAP)
With B1, the binding result in data set [1] was “binds”.

B2: SKAP^135–225 2A mutant (K161A, K164A) (domain or fragment, human, UniProt Q9Y448 135-225, looked up)
chain: VTKITKLRRENGQMKATDTATRRNVRAGYAPLSKQKSEEELKDKNQLLEAVNKQLHQKLTETQGELKDLTQKVELLEKFRDNCLAILESKG
notes: Small kinetochore-associated protein (SKAP); source: E. coli OverExpress C41 (DE3), purified (GSTrap FF, HiTrap Q FF, Superdex 200)
B2: the “fold reduction of microtubule-binding affinity against wild type” value in data set [1] was around 4 fold.

B3: SKAP^135–225 4A mutant (K140A, K149A, K161A, K164A) (domain or fragment, human, UniProt Q9Y448 135-225, looked up)
chain: VTKITALRRENGQMAATDTATRRNVRAGYAPLSKQKSEEELKDKNQLLEAVNKQLHQKLTETQGELKDLTQKVELLEKFRDNCLAILESKG
notes: as for B2
In the case of B3, in data set [1], the “fold reduction of microtubule-binding affinity against wild type” value was around 31 fold.

B4: SKAP^135–225 (domain or fragment, human, UniProt Q9Y448 135-225, looked up)
chain: VTKITKLRRENGQMKATDTATRRNVRKGYKPLSKQKSEEELKDKNQLLEAVNKQLHQKLTETQGELKDLTQKVELLEKFRDNCLAILESKG
notes: Small kinetochore-associated protein (SKAP); Behaved as a trimer in AUC and cross-linking; also called WT; source: E. coli OverExpress C41 (DE3), purified (GSTrap FF, HiTrap Q FF, Superdex 200)
For B4, the “stoichiometry N” value in data set [2] turned out to be 3. Also, the Kd in data set [1] was around 580 nM.

B5: SKAP^159–316:Astrin^482–850 complex (complex, human)
chain 1: VRKGYKPLSKQKSEEELKDKNQLLEAVNKQLHQKLTETQGELKDLTQKVELLEKFRDNCLAILESKGLDPALGSETLASRQESTTDHMDSMLLLETLQEELKLFNETAKKQMEELQALKVKLEMKEERVRFLEQQTLCNNQVNDLTTALKEMEQLLEM
chain 2: NKLQHLKESHEMGQALQQARNVMQSWVLISKELISLLHLSLLHLEEDKTTVSQESRRAETLVCCCFDLLKKLRAKLQSLKAEREEARHREEMALRGKDAAEIVLEAFCAHASQRISQLEQDLASMREFRGLLKDAQTQLVGLHAKQEELVQQTVSLTSTLQQDWRSMQLDYTTWTALLSRSRQLTEKLTVKSQQALQERDVAIEEKQEVSRVLEQVSAQLEECKGQTEQLELENSRLATDLRAQLQILANMDSQLKELQSQHTHCAQDLAMKDELLCQLTQSNEEQAAQWQKEEMALKHMQAELQQQQAVLAKEVRDLKETLEFADQENQVAHLELGQVECQLKTTLEVLRERSLQCENLKDTVENLTA
notes: Small kinetochore-associated protein (SKAP); Stoichiometry of the complex was not determined (AUC thwarted by limited solubility); also called SKAP:Astrin complex; source: Tnao38 insect cells (baculovirus), co-expressed, purified (HisTrap FF, Superose 6)
Turning to B5, the Kd in data set [1] was around 1600 nM.

B6: SKAP^159–316 (expressed alone in E. coli) (domain or fragment, human, UniProt Q9Y448 159-316, looked up)
chain: VRKGYKPLSKQKSEEELKDKNQLLEAVNKQLHQKLTETQGELKDLTQKVELLEKFRDNCLAILESKGLDPALGSETLASRQESTTDHMDSMLLLETLQEELKLFNETAKKQMEELQALKVKLEMKEERVRFLEQQTLCNNQVNDLTTALKEMEQLLEM
notes: Small kinetochore-associated protein (SKAP); source: E. coli OverExpress C41 (DE3), purified (GSTrap FF, HiTrap Q FF, Superdex 200); not shown: GST, N-terminal, cleaved
In the case of B6, the binding result in data set [1] is listed as “binds”.

B7: SKAP^159–225 (domain or fragment, human, UniProt Q9Y448 159-225, looked up)
chain: VRKGYKPLSKQKSEEELKDKNQLLEAVNKQLHQKLTETQGELKDLTQKVELLEKFRDNCLAILESKG
notes: as for B6
Consider B7, for which, in data set [1], the Kd was around 2500 nM.
